Experimental data: patent CN115785267A (SANYOU BIO INC, dated 2023)
Residue numbers refer to the chain shown, from its start.

T1: 人IL-23-His (human, UniProt Q9NPF7 20-189; P29460 23-328)
T1 construct: range 20-189;range 23-328; also called 重组蛋白人IL-23
T1 sequence (looked up) 1: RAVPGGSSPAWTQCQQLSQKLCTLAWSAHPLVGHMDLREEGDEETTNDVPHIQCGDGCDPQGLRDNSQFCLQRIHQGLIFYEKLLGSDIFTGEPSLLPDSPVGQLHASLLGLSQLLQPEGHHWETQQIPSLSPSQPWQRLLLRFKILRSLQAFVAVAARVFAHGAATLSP
T1 sequence (looked up) 2: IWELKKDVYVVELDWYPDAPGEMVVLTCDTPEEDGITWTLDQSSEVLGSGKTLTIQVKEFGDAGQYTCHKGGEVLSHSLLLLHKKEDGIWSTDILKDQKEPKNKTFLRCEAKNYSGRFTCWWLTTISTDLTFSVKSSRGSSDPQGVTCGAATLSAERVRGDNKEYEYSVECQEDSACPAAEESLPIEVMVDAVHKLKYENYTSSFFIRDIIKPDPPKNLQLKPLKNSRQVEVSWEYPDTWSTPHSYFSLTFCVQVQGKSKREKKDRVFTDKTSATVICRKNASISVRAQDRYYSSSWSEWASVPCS

B1: 改造后抗体S5-5HWTL (antibody, V domains shown)
VH: QVQLVQSGAEVKKPGSSVKVSCKASGGTFSSYAISWVRQAPGQGLEWMGGIIPIFGTANYAQKFQGRVTITADESTSTAYMELSSLRSEDTAVYYCARDRFGLYYYYGMDVWGQGTMVTVSS
VL: QSVLTQPPSVSGAPGQRVTISCTGGSSSIGAGYDVQWYRQLPGIAPKLLIYRSTNRPSGVPARFSGSKSGASASLAITGLQAEDEADYYCVSYDSSLGGYVFGTGTKVTVL
B2: 改造后抗体S5-4H6L (antibody, V domains shown)
VH: B1 VH with G102S
VL: B1 VL with S26Q, S95A
B3: 改造后抗体S5-15HWTL (antibody, V domains shown)
VH: B1 VH with Q1K, I51F, F101T, G102S
VL: B1 VL

How the values were obtained:
人IL-23-His [1] = molecular target: T1, 人IL-23-His; assay: Biacore (SPR), human IL-23-His
人IL-23-His [2] = molecular target: T1, 人IL-23-His; assay: cell-based or functional assay

Binder	Kd (人IL-23-His [1])	koff (人IL-23-His [1])	kon (人IL-23-His [1])	抑制IL-23激活小鼠脾细胞分泌IL-17: 剂量浓度 at which the inhibition is better than that of Guselkumab (人IL-23-His [2])
B1	0.0625 nM	6.97e-06 s⁻¹	111000 M⁻¹ s⁻¹	0.063 µg/mL
B2	0.0589 nM	6.03e-06 s⁻¹	102000 M⁻¹ s⁻¹	0.056 µg/mL
B3	0.108 nM	1.18e-05 s⁻¹	109000 M⁻¹ s⁻¹	0.167 µg/mL
